We go through five molecules from PMC5501724, “Structural Basis for Specific Interaction of TGFβ Signaling Regulators SARA/Endofin with HD-PTP” (Structure(London, England:1993), 2017).

Ends that are not written are not given here. Some results are limits rather than exact numbers.

Assay [1] concerns the target T1, HD-PTPBro1 (Bro1 domain of HD-PTP, 1-361) (Homo sapiens, UniProt Q9H3S7).
T1 construct: HD-PTPBro1 (1-361) was cloned in a pNIC28-Bsa4 vector; made in house; host or cells: E. coli BL21 (DE3)
T1 sequence (Q9H3S7 1-361): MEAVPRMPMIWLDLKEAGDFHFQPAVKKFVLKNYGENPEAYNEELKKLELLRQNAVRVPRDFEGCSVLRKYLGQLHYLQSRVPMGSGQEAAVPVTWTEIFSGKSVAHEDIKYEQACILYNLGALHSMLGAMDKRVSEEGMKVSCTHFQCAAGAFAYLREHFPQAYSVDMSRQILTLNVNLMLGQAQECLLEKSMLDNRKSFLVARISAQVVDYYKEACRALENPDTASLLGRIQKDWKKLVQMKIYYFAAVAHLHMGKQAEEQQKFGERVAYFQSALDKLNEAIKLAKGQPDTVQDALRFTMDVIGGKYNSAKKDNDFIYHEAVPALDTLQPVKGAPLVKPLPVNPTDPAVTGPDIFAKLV
The experiment in a line: Biosensor (SPR) binding of peptides to HD-PTPBro1. The conditions noted are these: 10 mM HEPES pH 7.4, 150 mM NaCl, 0.05% Tween 20, 25°C; for Binding to HD-PTPBro1 (sensogram): compared with wild-type endofin peptide, result in words. As for the experimental part:
(§1) Biosensor based binding experiments were performed using a ProteOn XPR36 surface Plasmon resonance instrument (Bio-Rad Laboratories). The ProteOn XPR36 is multiplex system that can be used to provide simultaneous flow of up to six analyte channels (A1-A6) over up to six ligand channels (L1-L6). The running buffer used was 10 mM HEPES pH 7.4, 150 mM NaCl, 0.05% Tween 20. Immobilization of His6-tagged HD-PTP and a negative control protein, His6-tagged MptpB, was performed on a HTE chip (Bio-Rad Laboratories) in the vertical orientation. Proteins were diluted in running buffer to a final concentration of 50-100 μg/ml and 150 μl was injected at a flow rate of 30 μl/min The immobilization level of proteins was typically 5000-8000 response unit (RU). All experiments were performed at 25°C. Synthetic peptides spanning the binding regions of CHMP4 A, B and C, and SARA and endofin, were obtained from Generon Ltd, UK. For equilibrium binding measurements these peptides were used as analytes. Peptide stocks were prepared in running buffer just prior the binding experiments. Peptides were injected (50 μl at 100 μl/min) in the horizontal orientation using five serially diluted peptide concentrations (channels A1-A5) alongside a buffer control (channel A6). Peptide concentrations were chosen to give a suitable spread of responses below and above half-maximal binding.
(§2) All the binding sensograms were collected, processed and analyzed using the integrated ProteOn Manager software (Bio-Rad Laboratories), using the equilibrium binding mode: Response = [A] ^∗ Rmax/([A] + KD), where [A] is the analyte concentration and Rmax is the maximum response. At least 3 independent replicates were performed for each experiment. Values in the text and figure legends indicate mean +/- SD (standard deviation).

A further assay addresses T2, HD-PTPBro1-CC (1-714) (Homo sapiens, UniProt Q9H3S7).
T2 construct: HD-PTPBro1-CC (1-714) and AlixBro1 (1-359) were cloned in a pET28a vector; made in house; host or cells: E. coli BL21 (DE3)
T2 sequence (Q9H3S7 1-714): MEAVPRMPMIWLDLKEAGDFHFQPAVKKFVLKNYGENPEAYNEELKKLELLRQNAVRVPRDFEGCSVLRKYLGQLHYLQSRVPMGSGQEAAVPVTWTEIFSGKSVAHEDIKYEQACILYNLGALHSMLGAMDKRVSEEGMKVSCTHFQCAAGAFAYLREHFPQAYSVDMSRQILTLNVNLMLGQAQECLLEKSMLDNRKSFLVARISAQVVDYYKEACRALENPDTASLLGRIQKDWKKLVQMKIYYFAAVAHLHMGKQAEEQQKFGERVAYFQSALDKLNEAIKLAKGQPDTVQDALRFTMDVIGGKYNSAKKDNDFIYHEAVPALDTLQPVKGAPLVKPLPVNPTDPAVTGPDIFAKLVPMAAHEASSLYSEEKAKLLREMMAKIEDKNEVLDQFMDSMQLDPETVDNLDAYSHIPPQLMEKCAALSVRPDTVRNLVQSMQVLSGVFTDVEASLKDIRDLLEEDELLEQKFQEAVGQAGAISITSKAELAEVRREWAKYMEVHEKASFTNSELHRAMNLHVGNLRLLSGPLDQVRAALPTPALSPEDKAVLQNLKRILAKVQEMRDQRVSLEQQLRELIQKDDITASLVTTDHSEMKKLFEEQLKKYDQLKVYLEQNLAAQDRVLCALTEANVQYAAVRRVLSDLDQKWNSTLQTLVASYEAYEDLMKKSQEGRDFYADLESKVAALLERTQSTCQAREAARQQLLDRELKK
The experiment in a line: Biosensor (SPR) binding of peptides to HD-PTPBro1-CC. The conditions noted are these: 10 mM HEPES pH 7.4, 150 mM NaCl, 0.05% Tween 20, 25°C; for Binding to HD-PTPBro1-CC (sensogram): compared with wild-type endofin peptide, result in words. The method, then: as §1, §2

Assay [2] concerns the target T3, His6-HD-PTP_(Bro1) (1-361) (human, UniProt Q9H3S7 1-361).
T3 construct: HD-PTP/PTPN23, Bro1 domain, residues 1-361; Immobilised by its His6 tag on the HTE chip; also called HD-PTP Bro1 domain; source: E. coli BL21 (DE3), purified (Nickel-beads, MonoQ, Superdex 200); not shown: His6, N-terminal, kept
T3 sequence (looked up): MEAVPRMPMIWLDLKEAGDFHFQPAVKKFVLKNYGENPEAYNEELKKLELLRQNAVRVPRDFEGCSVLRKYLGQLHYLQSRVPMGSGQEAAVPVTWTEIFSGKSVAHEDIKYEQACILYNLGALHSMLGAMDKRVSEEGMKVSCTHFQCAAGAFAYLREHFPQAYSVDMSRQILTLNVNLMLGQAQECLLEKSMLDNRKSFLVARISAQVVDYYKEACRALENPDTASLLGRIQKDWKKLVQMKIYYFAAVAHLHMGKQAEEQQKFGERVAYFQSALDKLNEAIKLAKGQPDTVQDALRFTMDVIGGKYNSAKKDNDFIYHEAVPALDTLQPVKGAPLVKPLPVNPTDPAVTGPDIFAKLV
The experiment in a line: SPR; ProteOn XPR36; His6-tagged proteins immobilised on a HTE chip (5000-8000 RU); synthetic peptides as analytes, five concentrations; 10 mM HEPES pH 7.4, 150 mM NaCl, 0.05% Tween 20; 25°C; equilibrium binding fit. The following applies: both partners purified.

Assay [3] has as its target T4, His6-HD-PTP_(Bro1-CC) (1-714), bacterially expressed (human, UniProt Q9H3S7 1-714).
T4 construct: HD-PTP/PTPN23, Bro1 and coiled-coil domains, residues 1-714; also called His-HD-PTP; source: E. coli BL21 (DE3), purified (Nickel-beads, MonoQ, Superdex 200); not shown: His6, N-terminal, kept
T4 sequence (looked up): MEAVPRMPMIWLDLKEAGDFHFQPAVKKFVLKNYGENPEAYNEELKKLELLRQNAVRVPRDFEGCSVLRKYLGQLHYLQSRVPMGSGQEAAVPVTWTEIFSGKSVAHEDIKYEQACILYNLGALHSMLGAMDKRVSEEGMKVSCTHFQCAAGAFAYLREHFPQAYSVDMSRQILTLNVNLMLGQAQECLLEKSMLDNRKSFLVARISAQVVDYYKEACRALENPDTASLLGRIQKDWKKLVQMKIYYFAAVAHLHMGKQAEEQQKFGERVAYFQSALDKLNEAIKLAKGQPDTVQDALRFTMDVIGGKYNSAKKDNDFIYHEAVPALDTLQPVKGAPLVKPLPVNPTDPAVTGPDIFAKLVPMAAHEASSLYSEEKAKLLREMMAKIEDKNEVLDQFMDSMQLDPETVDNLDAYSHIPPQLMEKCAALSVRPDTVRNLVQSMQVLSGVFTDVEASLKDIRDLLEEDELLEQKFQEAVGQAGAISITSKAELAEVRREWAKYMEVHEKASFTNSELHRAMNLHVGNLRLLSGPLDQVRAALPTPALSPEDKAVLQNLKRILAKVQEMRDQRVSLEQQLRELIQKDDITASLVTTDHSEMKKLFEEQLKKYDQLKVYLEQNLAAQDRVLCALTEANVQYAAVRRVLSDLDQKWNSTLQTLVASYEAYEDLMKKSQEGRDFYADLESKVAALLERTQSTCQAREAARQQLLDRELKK
The assay is described as above. The following applies: both partners purified.

[4] abbreviates: listed as endofin L15 to proline.
Where [5] appears, read: listed as endofin peptide containing the L15P mutation.

With KAAVSDLDKLLDDFEQN, in assay [1], the “Binding to HD-PTPBro1 (sensogram)” value is reported as “poor binding”. Further, the Kd in assay [1] (poor binding, read-out: Binding (affinity bound) to HD-PTPBro1) was > 1500 µM; at HD-PTPBro1-CC (1-714) (poor binding, read-out: Binding (affinity bound) to HD-PTPBro1-CC), > 1500 µM. Further, at HD-PTPBro1-CC (1-714), the “Binding to HD-PTPBro1-CC (sensogram)” value was “poor binding”.

For the molecule “endofin1–22(L15P): endofin 22-mer peptide containing the L15P mutation (MDSYFKAAVSDLDKPLDDFEQN)”, the “Binding to HD-PTPBro1 (sensogram)” value in assay [1] (setting [4]) is “abolishes binding”; in assay [1] (setting [5]), “did not bind”. In addition, the results for the “Binding to HD-PTPBro1-CC (sensogram)” value with HD-PTPBro1-CC (1-714) (setting [4]) and with HD-PTPBro1-CC (1-714) (setting [5]) were “abolishes binding” and “did not bind”, respectively.

Consider PKVDEDEEALKQLAEWVS [CHMP4A C-terminal peptide], for which the Kd in assay [2] is 132 µM.

B1: endofin 22-mer peptide (first 22 residues of endofin) (peptide, UniProt Q7Z3T8 1-22, looked up)
peptide: MDSYFKAAVSDLDKLLDDFEQN
notes: human endofin, first 22 residues; begins 1-MDSYF-5; also called endofin peptide; endofin_(1-22) (WT); source: synthetic peptide (Generon Ltd, UK)
As to B1, the Kd in assay [2] turned out to be 3.1 µM; in assay [3] it was 2.7 µM.

Regarding KKKEEEDDDMKELENWAGSM [CHMP4B C-terminal peptide], the Kd in assay [2] worked out at 85 µM.
